Assay results as given in paper PMC3928423, “RRP6 from Trypanosoma brucei: Crystal Structure of the Catalytic Domain, Association with EAP3 and Activity towards Structured and Non-Structured RNA Substrates” (PLoS ONE, 2014).
Where a chain is given by its changes, count along the chain named.

How the values were obtained:
[1] = target: TbEAP3ΔC2 (residues 1 to 144) (Trypanosoma brucei); test: SEC-MALS; under reducing condition (10 mM DTT); data not shown
[2] = target: TbEAP3ΔC2 (residues 1 to 144) (Trypanosoma brucei); test: SEC-MALS; HPLC (Shimadzu), Shodex KW-804 or KW-803 column, proteins at 5 mg/mL in 50 mM Tris-HCl pH 7.5, 500 mM NaCl, 5% glycerol, 0.5 mL/min; miniDAWN TREOS
[3] = target: TbRRP6ΔC (residues 20 to 540) (Trypanosoma brucei) (UniProt Q95Z10); test: as above
TbEAP3ΔC1 = target: T1, TbEAP3ΔC1 (Trypanosoma brucei, UniProt Q582G1 1-183); test: EMSA; 5 mM MnCl2; protein 5-50 uM; 10 mM Tris-HCl pH 8.0, 10 mM DTT, 25 mM KCl, 5 mM MnCl2; 50 nM oligonucleotide; 5, 10 or 50 uM protein; 30 min on ice; native 6% gel, 0.25x TBE, 0.5% glycerol; details: protein: recombinant, tags: pET21a, chain copies: 2
T1 sequence: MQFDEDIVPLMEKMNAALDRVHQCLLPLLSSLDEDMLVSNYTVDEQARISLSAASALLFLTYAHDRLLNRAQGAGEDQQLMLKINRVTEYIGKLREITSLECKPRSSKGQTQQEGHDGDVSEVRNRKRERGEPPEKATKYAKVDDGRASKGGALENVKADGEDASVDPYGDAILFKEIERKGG

TbEAP3ΔC2 = target: T2, TbEAP3ΔC2 (Trypanosoma brucei, UniProt Q582G1 1-144); test: as above; details: protein: recombinant, tags: pET21a, chain copies: 2
T2 sequence: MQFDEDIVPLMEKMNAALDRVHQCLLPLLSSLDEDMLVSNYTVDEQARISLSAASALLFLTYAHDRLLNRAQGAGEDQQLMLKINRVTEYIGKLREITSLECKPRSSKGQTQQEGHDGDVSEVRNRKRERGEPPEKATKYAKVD

[4] = target: the molecule itself; test: SEC-MALS; HPLC (Shimadzu), Shodex KW-804 or KW-803 column, proteins at 5 mg/mL in 50 mM Tris-HCl pH 7.5, 500 mM NaCl, 5% glycerol, 0.5 mL/min; miniDAWN TREOS
[5] = label: 5'-FAM on strand 1, blunt
[6] = label: 5'-FAM, hairpin with 20 nt 3' extension

For “TbEAP3ΔC2 (residues 1 to 144) (domain or fragment)”, the stoichiometry N [1] was 2, the stoichiometry N [2] was 2 and the stoichiometry N [3] was 1.

CCAAAAAAAAAAAAACCACTCACTCACTCA (ssDNA) [ssDNA]: no binding (TbEAP3ΔC1; label: 5'-FAM, single strand); no binding (TbEAP3ΔC2; label: 5'-FAM, single strand).

B1: dsRNA (dsRNA)
RNA 1: CCAAAAAAAAAAAAACCACUCACUCACUCA
RNA 2: UGAGUGAGUGAGUGGUUUUUUUUUUUUUGG
B1: no binding (TbEAP3ΔC1; [5]); no binding (TbEAP3ΔC2; [5]).

B2: TbEAP3ΔC1 (residues 1 to 183) (domain or fragment, Trypanosoma brucei, UniProt Q582G1 1-183, looked up)
chain: T1 sequence
notes: TbEAP3, Trypanosoma brucei, gene Tb927.7.5460, residues 1-183 (C-terminal truncation); one copy in the heterodimer with TbRRP6ΔC; source: E. coli C3022 (pET21a), purified (His-Trap, Superdex 200, mono Q); also co-expressed with TbRRP6ΔC and co-purified
B2 was tested, and the “stoichiometry N” value [4] was 2 and the stoichiometry N [3] was 1.

CCAAAAAAAAAAAAACCACUCACUCACUCA (ssRNA) [ssRNA]: no binding (TbEAP3ΔC1; label: 5'-FAM, single strand); no binding (TbEAP3ΔC2; label: 5'-FAM, single strand).

B3: dsDNA (dsDNA)
DNA 1: B1 RNA 1 with U20T, U24T, U28T
DNA 2: TGAGTGAGTGAGTGGTTTTTTTTTTTTTGG
B3: no binding (TbEAP3ΔC1; [5]); no binding (TbEAP3ΔC2; [5]).

AUUUAUUUAGGGCGGGCGCAAGCCCGCCCUAUUUAUUAUUUAUUAUUUA (structured_RNA) [GNRA20]: no binding (TbEAP3ΔC1; [6]); no binding (TbEAP3ΔC2; [6]).
